Reference: the nanobody polyreactivity screen of Harvey et al. (2022)

Experiment: yeast display, Sf9 membrane polyspecificity reagent, FACS + sequencing; frameworks hold sequencing errors
Summary of the method: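 Genes from sorted yeast were amplified by colony PCR, read by MiSeq 2 × 250 sequencing and filtered on CDR length. These cells carried a synthetic nanobody library in Saccharomyces cerevisiae BJ5465 and were sorted by FACS into low and high (top ~1%) gates on anti-HA and streptavidin fluorescence. Polyreactivity is labelled according to the gate of origin.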

Sequence | polyreactivity (PSR sort gate)
QVQLVESGGGLVQAGGSLRLSCAASGSTFRYYDMGWYRQAPGKERELVADISSGGSTYYADSVKGRFTISRDNAKNTVYLQMNSLKPEDTAVYYCAAAYLSWLFRYDYWGQGTQVTVSS | high polyreactivity
QVQLVESGGGLVQAGGSLRLICAASGITLYRYAMGWYRQAPGKERELVADISSGGGTTYYADSVKGRFTISRDNAKNTVYLQMNSLKPEDTAVYYCAADYGFRYPLYDYWGQGTQVTVSS | low polyreactivity
QVQLVESGGGLVQAGGSLRLSCAASGSNFNRYAMGWYRQAPGKERELVAAISRSGGRTYYADSVKGRFTISRDNAKNTVYLQMNSLKPEDTAVYYCAAGGRWFYIDDDWGQGTQVTVSS | high polyreactivity
QVQLVESGGGLVQAGGSLRLSCAASGSIFGPYVKGWYSQAPGKEREFVAAIRGSGGSTYYADSVKGRFTISRDNAKKTVYLQMNSLKPEDTAVYYCNARLKYTLYYYWGQGTQVTVSS | high polyreactivity
QVQLVESGGGLVQAGGILRLSCGASGIIFDGYAMGWSRQAPGKERELVAAIDGTGDSTYYADSVKGRFTISRDNAKNTVYLQMNSLKPEDTAVYYCGAEYDYRWWYGYDYWGQGTQVTVSW | high polyreactivity
QVQLQESGGGLVQAGGSLRLSCAASGPISGPHVMGWYRQAPGKEREFVAAINVGANTYYADNVKGRFTISRDNATNTVYLQMNSLKPEDTAVYYCAAVYYGDIGHEYWGQGTQVTVSC | low polyreactivity
QVQLVESGGGLVQAGGSLRLSCAASGRTFYGYAMGWYRQAPGKERELVASISRDGSTNYADSVKGRFTISRDNAKNTVYLQMYSLKPEDTAVYYCAADIWYYRYPIYYYSYDYWGQGTQVTVSS | low polyreactivity
QVQLVESGGGLVQAGGSLRLSCAASGITFVYYAMGWYRPAPGKERELVAAISWNGGSTYYADSVKGRFTISRDNAKNTVYLQMNSLKPEDSAVYYCNADSDPWYGHFSYYYYDMGYWGQGTQVTVSS | low polyreactivity
QVQLVESGGGLVQAGGSLRLSCAASGFTFQKYAMGWYRQAPGKERELVAAISSSGGRTYYADSVKGRFTISRDNAKNTVYLQMNSLKPEDTAVYYCNAVPGYVYDYQYWGQGTQVTVSS | high polyreactivity
QVQLVESGGGLVQAGGSLRLSCAASGFTFSYNAMGWYRQAPGKERELVAAISSGGRTYYADSVKGRFTISRDNAKNTVYLQINSLKPEDTAVYYCNAEPDQYTLRSITNDEDYWGQGTQVTVSS | low polyreactivity
QVQLVESGGGLVQAGGRLRLSCAASGSTFYWNTMGWYIQAPGKERELVAAISRRGGSTYYADSEKGRFTISRDNAKNTVYLQMNSLKPEETAVYYCNKLLSQRRYHSEMDYWGQGTQVTVSS | high polyreactivity
QVQLVESGGGLVQAGGSRRLSCAASGGTFVSYAMGWYIQAPGKERELVADITYSGGSTYYADSVKGRFTISRDNAKNTVYLQMNSLKPEDTAVYYCAADLGRNLLHTYYYWGQGTQVTVSS | low polyreactivity
QVQLVESGGGLVQAGGSLRLSCAASGSTLPANSMGWYRQAPGKERELVAAITITTDGSTYYADSVKGRFTISRDNAKNTVYLQMNSLKPEDTAVYYCAVARYRYHIRKMGYWGQGTQVTVSS | low polyreactivity
QVQLVESGGGLVQAGGSLRLSCAASGSTFRNYAMGWYRQAPGKERELVAAISGSGGRTNYADSVKGRFTISRDNAKNTVYLQMNSLKPEDNAVYYCNARFPDWALSEISHSTTYGYWGQGTQVTVSS | low polyreactivity
QVQLVESGGGLVQAGGSLRISCAASGSTFQLYSMGWSRQAPGKEREFVAAITYSGGGSTSYADSVKGRFTISRDNAKNTVYLQMNSLKPEDTAVFYCAARDFETDGYTLVAYNYWGQGSQVTVSS | low polyreactivity
QVQLVESGGGLVQAGGSLRLSCAASGSTFNPYAMAWYRQAPGKEREFVAAISWRGGSTYYADSVKGRFTISRDNAKNTVYLQMNSLKPEDTAVYYCAARRLYSHTTSGRGYWGQGTQVTVSS | high polyreactivity
QVQLVESVGGLVQAGGTLRLTCAASGSNFKAYAMRWYRQATGKERELVARIRYRGGSTYNADSVKGRFTISRDNAKNTVFLQMNSLKPEETAVYYCAARLSPYHTDRGDYLGQGTQVTVSS | high polyreactivity
QVQLVESGGGLVQAGGSLRLSCAASGYTLGSYAMGWYRQAPGKERELVATITWGGGSTDYADSVKGRFTISRDNAKNTVYLQMNSLKPEDTAVYYCAAEDDSYDVEGSLYYWGQGTQVTVSS | low polyreactivity
QFQLVESGGGLVQAGGSLRLSCAASGRTFTYNAMGWYRQAPGKERELVAAINSGGSTNYADSVKGRFTISRDNAKNTVYLQMNSLKPEDTAVYYCNAGFGFGSSRYGTRYYYWGQGTQVTVSS | low polyreactivity
QVQLEESGGGLVQAGGSLRLSCAASGGTFGWYAMGWYRPAPGTERELVAAITSSGGTTFYADSVKGRFTISRDTAKNTVYLQMNSLKPEDTAVYYCAKRGKRPTRYKLGKYDYWGQGTQVTVSS | high polyreactivity
QVQLVESAGGLVQEGGSLRLICAASGSIFEPYAMGWYRQAPGKERELVAAIRWSGGSTYYADSVKGRFTISRDNAKNTVYLQMNRLIPEDTAVYYCAKYFPAGYYYWGQGTQVTVSS | low polyreactivity
QVQLVESGGGLVQAGGSLRLSCAASGSSFGTYAMGWYRQAPGKERELVAAISSSVGSTYYADSVKGRFTISRDNATNTVYLQMNSLKPEDTAVYYCAVEQEDFWYPYLYDYWGQGTQVTVSS | high polyreactivity

Sequence | polyreactivity (PSR sort gate)
QVQLVESGGGLVQAGGSLRLSCAASGSTFWPYAMGWFRQAPGTERELVAAITWSGGRTYYADSVKGRFTLSRDNAKNTVYLQMNSLKPEDTAVYYCAAYYRQGIAPNGFDYWGQGTQVTVSS | high polyreactivity
QVQLVESGGGLVQAGGSLRLSCAASGFTFNTYAMGWYRQAPGKERELVAAITTSGGSTYYADSVKGRFTISRDNAKNTVYLQMNSLKPEDTAVYSCAAKSGRGVVRGRDDYWGQGTQVTVSS | high polyreactivity
QVQLVESGGGLVQAGGSLRLSCAASGSTFFPNAMGWYRQAPGKEREFVAAISWSGGRTYYADSVKGRFTISRDNAKNTVYLQMNSLKPEDTAVYYCAARLYTVRYGYWGQGTQVTVSS | high polyreactivity
QVQLVESGGGIVHAGGSLRLSCAASGSTIDVYDMGWYRQAPGKERELVAAITTSGGGTYYADSVKGRFTISRDNAKNTVYLQMNRLKPEDTAVYYCAADTWRDGDDYWGQGTQVTVSS | low polyreactivity
QVQLVESGGGLVLAGGSLRLSCAASGYTFTIYAMGWYIQGPGKERELVSAITGRGGRTNYADSVKGRFTISRDNAKNTVYLQMNSLKPEDTAVYYCNAVTKVVYHGPYGYDYWGQGTQVTVSS | high polyreactivity
QVQLVESGGGLVQAGGSLRLSCAASGRTFKRKAKGWYRQAPGKEWEFVAVITGSGGSTYYADSVKGRFTISRDNAKNTVYLQMNSLKPEDTAVYYCAAALGLRSTSWGRRGGGGDYWGQGTQVTVSS | high polyreactivity
QVQLVESGGGLVQAGGSLRLSCAASGRIFRWYAMGWYRQAPGKERELVATISSSGRTNYADSVKGRFTISRDNAKNTVYLQMNSLKPEDTAVYYCAAEYYLRYRYDYWGQGTQVTVSS | high polyreactivity
QVQLVESGGGLVQAGGSLRLSCAATGSTFDRNAMVWYRLAPGKERELVAAISWRGGRTYYADSVKGRFTISRDNAKNTVYLQMNSLKPEDTAVYYCSAKGPGIRSVEGYDYWGQGTQVTVSS | low polyreactivity
QVQLVESGGGLVQAGGSLRLSCAASGSIFYNNAMGWYRQAPGKERELVAAISGSGDSTYYADSVKGRFTISRDNAKNSVYLQMNSLKPEDTAVYYCNATPYVLWWSDMDYWGQGTQVTVSS | high polyreactivity
QVQLVESGGGLVQAGGSLRLSCAASGSIFGQYAMGRYRQAPGKERDLVAAIDWSSASTYYADSVKGRVTISRDNAKNTVYLQMNSLKPEDTAVYDCNAVGKYYRYDYWGQGTQVTVSS | high polyreactivity
QVQLVESGGGLVQAGGSLPLSCAASGSIFQLNAMGWYRQAPGKERELVGSIRDGGSTSYADSVKGRFTISRDNAKNTVYLQMNSLKPADTAVYYCADLKLYIYDYWGQGTQVTVSS | high polyreactivity
QVQLVESGGGLVQAGGSLRLSCAASGLTFGRNAMGWYRQAPGKERELVAAIRWSGGSTYYADSVKGRFTISRDNAKNTVYLQMNSLKPEDTAVYYCAATRVLRPVGTHYYYWGQGTQVTVSS | high polyreactivity
QVQLVESGGGLVQAGGSLRLSCAASGSTFYFNAMGWYRQAPGKERELVAGIRYSGSSTYYADSVKGRFTISRDNAKNTVYLQMNSLKPEDTAVYYCAARYSVYPRVSKYSYRFNYWGQGTQVTVSS | high polyreactivity
QVQLVESGGGLVQAGGSLRLSCAASGYTFGYNARGWYRQAPGKERELVANITWRGGSTNYADSVKGRFTISRDNAKNTVYLQMNSLKPEDTAVYYCAADRPWYYGRYYYWGQGTQVTVSS | high polyreactivity
QVQLVESGGGIVQAGGSLRVSCAASGRTYLRNAMGWSRQAPGKERELVASITSRGGRTYADSVKGRFTISRDNAKNTVYLQMNSLKPEDTAVYYCDARRQAGLRYDYWGQGTQVTVSS | high polyreactivity
QVQLEESGGGLVQAGGSLRLSCAASGRTFSYNAMGWYRQPPGKEREFVAAITWRGSSTYYADSVKWRFTISRDYEKNTVYLQMNSLIPDDTAVYECNARATNVIWGRYDYWGQGTQVTVSS | high polyreactivity
QVQLVESGGGLVQAGGSLRLSCAASGFTFYDYAMGWYRQAPGKEREFVAAITWSGSSTYYADSVKGRFTISRDNAKNTVYLQMNSLKPEVTAVYYCAVGPFRRRGHYPTYYRYGYWGQGTQVTVSS | high polyreactivity
QDQLVESGGGLVQAGGILRLSSSASGFTFAYYAMGWYRQSTGKERQLVAAISSRGGSTYYADTVKGRFSISRDNAKNTVYLQMNILKPEDTAVYYCAAEFGLWPYEYGYCGQGTQVTVSS | high polyreactivity
QVQLVESGGGLVQAGGSLRLSCAASGSIFGYNAKGWYRQAPGKERELVAAINYRGGSTYYADSVKGRFTISRDNAKNTVYLQMNSLKPEDTAVYYCAARYWKDGSTYDYWGQGTQVTVSS | high polyreactivity
QVQLVESGGGLVQAGGSLRLSCAASGFIFAWYTMGWYRQAPGKERELVAAISANGGNTYYADSVKGRFTISRDNAKNTVYLQMNSLKPEDTAVYYCAALYKYSSSFDYWGQGTQVTVSS | high polyreactivity
QVQLVESGGGLVQAGGSLRLSCDASGFNIASYDMGWYRQAPGKERELVAAISKGGGRTYYADSVKGRFTISRDNAKNTVYLQMKSLKPEDTAVYYCAAYAPYPRRAYDYWGQGTQVTVSS | low polyreactivity
